Drawing on patent publication US20140248710A1, this text covers IC50 (read off the curve) for one molecule.

Ends that are not written are not given here.

This test concerns the target G-131-C affinity purified goat polyclonal antibody against the N-terminus of cardiac troponin I (BiosPacific, Emeryville, Calif.). In words: Competition FRET: the unlabeled N-terminal CTnI peptide is titrated against the labeled peptide-oligo conjugates for binding to G-131-C. The antibody concentration of the inset is not given. [inset].

Molecule MADGSSDAAREPRPAC (not fully specified) [Unlabeled N-terminal CTnI peptide] had an IC50 (read off the curve) of 40 nM.
